{"source": "patent US20240270846A1", "about": "(published 2024)", "binders": {"B1": {"name": "CE115HA000 I51D one-arm antibody (antibody, human IgG1, kappa, L234A L235A, N297A, name in Kabat numbering)", "heavy": "QVQLVESGGGVVQPGRSLRLSCAASGFTFSNAWMHWVRQAPGKGLEWVAQDKAKSNNYATYYAESVKGRFTISRDDSKNSLYLQMNSLKTEDTAVYYCRYVHYGAYYGVDAWGQGTTVTVSSASTKGPSVFPLAPSSKSTSGGTAALGCLVKDYFPEPVTVSWNSGALTSGVHTFPAVLQSSGLYSLSSVVTVPSSSLGTQTYICNVNHKPSNTKVDKKVEPKSCDKTHTCPPCPAPEAAGGPSVFLFPPKPKDTLMISRTPEVTCVVVDVSHEDPEVKFNWYVDGVEVHNAKTKPREEQYASTYRVVSVLTVLHQDWLNGKEYKCKVSNKALPAPIEKTISKAKGQPREPQVYTLPPSRCELTKNQVSLSCAVKGFYPSDIAVEWESNGQPENNYKTTPPVLDSDGSFFLVSKLTVDKSRWQQGNVFSCSVMHEALHNHYTQKSLSLSPDYKDDDDK", "chain": "EPKSSDKTHTCPPCPAPELLGGPSVFLFPPKPKDTLMISRTPEVTCVVVDVSHEDPEVKFNWYVDGVEVHNAKTKPREEQYNSTYRVVSVLTVLHQDWLNGKEYKCKVSNKALPAPIEKTISKAKGQPREPQVCTLPPSRDELTKNQVSLWCLVKGFYPSDIAVEWESNGQPENNYKTTPPVLDSDGSFFLYSKLTVDKSRWQQGNVFSCSVMHEALHNRYTQKSLSLSP", "light": "DIVMTQSPLSLPVTPGEPASISCRSSQSLVHSNRNTYLHWYQQKPGQAPRLLIYKVSNRFSGVPDRFSGSGSGTDFTLKISRVEAEDVGVYYCGQGTQVPYTFGQGTKLEIKRTVAAPSVFIFPPSDEQLKSGTASVVCLLNNFYPREAKVQWKVDNALQSGNSQESVTEQDSKDSTYSLSSTLTLSKADYEKHKVYACEVTHQGLSSPVTKSFNRGEC", "notes": "one-arm antibody"}, "B2": {"name": "CE115HA000 K52E one-arm antibody (antibody, human IgG1, kappa, L234A L235A, N297A, name in Kabat numbering)", "heavy": "B1 heavy with D51I, K52E", "chain": "B1 chain", "light": "B1 light", "notes": "one-arm antibody"}, "B3": {"name": "CE115HA000 K52N one-arm antibody (antibody, human IgG1, kappa, L234A L235A, N297A, name in Kabat numbering)", "heavy": "B1 heavy with D51I, K52N", "chain": "B1 chain", "light": "B1 light", "notes": "one-arm antibody"}, "B4": {"name": "CE115HA000 K52H one-arm antibody (antibody, human IgG1, kappa, L234A L235A, N297A, name in Kabat numbering)", "heavy": "B1 heavy with D51I, K52H", "chain": "B1 chain", "light": "B1 light", "notes": "one-arm antibody"}, "B5": {"name": "CE115HA000 K52I one-arm antibody (antibody, human IgG1, kappa, L234A L235A, N297A, name in Kabat numbering)", "heavy": "B1 heavy with D51I, K52I", "chain": "B1 chain", "light": "B1 light", "notes": "one-arm antibody"}, "B6": {"name": "CE115HA000 K52D one-arm antibody (antibody, human IgG1, kappa, L234A L235A, N297A, name in Kabat numbering)", "heavy": "B1 heavy with D51I, K52D", "chain": "B1 chain", "light": "B1 light", "notes": "one-arm antibody"}, "B7": {"name": "CE115HA000 K43Q one-arm antibody (antibody, human IgG1, kappa, L234A L235A, N297A, name in Kabat numbering)", "heavy": "B1 heavy with K43Q, D51I", "chain": "B1 chain", "light": "B1 light", "notes": "one-arm antibody"}, "B8": {"name": "CE115HA000 K52F one-arm antibody (antibody, human IgG1, kappa, L234A L235A, N297A, name in Kabat numbering)", "heavy": "B1 heavy with D51I, K52F", "chain": "B1 chain", "light": "B1 light", "notes": "one-arm antibody"}, "B9": {"name": "CE115HA000 I51E one-arm antibody (antibody, human IgG1, kappa, L234A L235A, N297A, name in Kabat numbering)", "heavy": "B1 heavy with D51E", "chain": "B1 chain", "light": "B1 light", "notes": "one-arm antibody"}, "B10": {"name": "CE115HA000 K43E one-arm antibody (antibody, human IgG1, kappa, L234A L235A, N297A, name in Kabat numbering)", "heavy": "B1 heavy with K43E, D51I", "chain": "B1 chain", "light": "B1 light", "notes": "one-arm antibody"}}, "note": "Changes are numbered by the printed parent chain. Names may count otherwise."}
{"biological_target": "T1, CD3 epsilon homodimer protein (UniProt P07766 23-126)", "T1 construct": "also called CD3 (CD3 epsilon)", "T1 sequence (P07766 23-126)": "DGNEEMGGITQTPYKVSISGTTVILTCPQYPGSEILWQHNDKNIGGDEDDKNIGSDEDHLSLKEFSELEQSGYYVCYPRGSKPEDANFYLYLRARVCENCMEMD", "assay": "SPR Biacore T200, antibody over immobilised CD3e homodimer;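 note: CD3 epsilon homodimer amine-coupled on a CM4 chip, run at 25 °C in HBS-EP+, Z = bound amount of each single-residue H chain variant over that of the parent antibody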"}
{"binder": "B1", "ratio of amounts bound (Z=Y/X vs CE115HA000)": 0.29}
{"binder": "B2", "ratio of amounts bound (Z=Y/X vs CE115HA000)": 0.26}
{"binder": "B3", "ratio of amounts bound (Z=Y/X vs CE115HA000)": 0.34}
{"binder": "B4", "ratio of amounts bound (Z=Y/X vs CE115HA000)": 0.22}
{"binder": "B5", "ratio of amounts bound (Z=Y/X vs CE115HA000)": 0.33}
{"binder": "B6", "ratio of amounts bound (Z=Y/X vs CE115HA000)": 0.25}
{"binder": "B7", "ratio of amounts bound (Z=Y/X vs CE115HA000)": 0.99}
{"binder": "B8", "ratio of amounts bound (Z=Y/X vs CE115HA000)": 0.17}
{"binder": "B9", "ratio of amounts bound (Z=Y/X vs CE115HA000)": 0.55}
{"binder": "B10", "ratio of amounts bound (Z=Y/X vs CE115HA000)": 0.9}
